Assay [1] has as its target T1, FcγRIIa R (FcγRIIa, allotype with Arg at position 131), extracellular domain with C-terminal His tag (human, UniProt P12318 34-217).
T1 construct: extracellular domain; also called FcγRIIa R type; 2aR
T1 sequence (looked up): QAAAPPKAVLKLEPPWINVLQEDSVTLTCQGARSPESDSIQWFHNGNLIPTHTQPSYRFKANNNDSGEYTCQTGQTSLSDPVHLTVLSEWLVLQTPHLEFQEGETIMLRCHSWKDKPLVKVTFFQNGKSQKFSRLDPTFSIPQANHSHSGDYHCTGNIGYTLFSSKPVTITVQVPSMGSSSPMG
The assay is described as follows: SPR (Biacore), antibody captured on antigen peptide chip, FcγR as analyte; relative binding. As to the method:
Analysis of interaction between objective antibody and the FcγR was carried out using Biacore T100 (GE Healthcare). HBS-EP+ (GE Healthcare) was used as the running buffer, and the measurement temperature was set to 25° C. Chips produced by immobilizing the antigen peptide by the amine coupling method to a Series S Sencor Chip CM5 (GE Healthcare), or alternatively, chips produced by allowing preliminarily biotinylated antigen peptides to interact with and immobilize onto a Series S Sensor Chip SA (certified) (GE Healthcare) were used. Antibodies of interest were captured onto an antigen peptide-immobilized chip, and allowed to interact to each FcγR diluted with running buffer. To regenerate and repeatedly use the chip, the antibodies captured on the chip were washed off by reacting 10 mM glycine-HCl, pH 1.5.

For assay [2], the target named is T2, FcγRIIb extracellular domain with C-terminal His tag (human, UniProt P31994 43-217).
T2 construct: extracellular domain; also called FcgRIIb; 2b
T2 sequence (looked up): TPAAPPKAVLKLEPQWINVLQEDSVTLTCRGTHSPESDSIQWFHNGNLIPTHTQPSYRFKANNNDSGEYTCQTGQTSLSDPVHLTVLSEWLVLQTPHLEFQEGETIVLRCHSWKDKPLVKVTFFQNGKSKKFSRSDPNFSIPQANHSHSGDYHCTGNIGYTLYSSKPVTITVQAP
The assay is described as follows: SPR (Biacore), relative binding. For orientation: SPR reads the build-up and loss of mass on a sensor chip optically.

B1: GpH7-B3 variant S337_02A/GpL16-k0 (antibody, human IgG1, kappa)
heavy: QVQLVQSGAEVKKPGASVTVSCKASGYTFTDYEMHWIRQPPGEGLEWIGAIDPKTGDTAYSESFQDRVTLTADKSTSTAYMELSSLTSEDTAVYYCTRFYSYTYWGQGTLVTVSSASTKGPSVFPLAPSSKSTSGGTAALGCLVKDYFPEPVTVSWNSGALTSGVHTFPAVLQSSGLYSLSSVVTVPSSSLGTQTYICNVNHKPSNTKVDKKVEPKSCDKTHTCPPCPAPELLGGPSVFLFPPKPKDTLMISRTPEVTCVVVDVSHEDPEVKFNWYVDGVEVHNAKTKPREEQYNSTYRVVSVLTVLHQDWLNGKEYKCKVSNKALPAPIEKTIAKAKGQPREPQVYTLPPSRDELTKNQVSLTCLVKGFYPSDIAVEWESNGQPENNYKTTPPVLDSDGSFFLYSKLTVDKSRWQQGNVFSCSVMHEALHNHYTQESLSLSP
light: DIVMTQSPLSLPVTPGEPASISCQASESLVHSNRNTYLHWYLQKPGQSPQLLIYKVSNRFSGVPDRFSGSGSGTDFTLKISRVEAEDVGVYYCSQNTHVPPTFGQGTKVEIERTVAAPSVFIFPPSDEQLKSGTASVVCLLNNFYPREAKVQWKVDNALQSGNSQESVTEQDSKDSTYSLSSTLTLSKADYEKHKVYACEVTHQGLSSPVTKSFNRGEC
notes: also called Ho Ab
For B1, in assay [1], the Ho/Con_2aR was 102 % of GpH7-B3/GpL16-k0 (=100).

B2: GpH7-A5/GpH7-B3 variant T335_07I/GpL16-k0 (antibody, human IgG1, kappa)
heavy 1: not shown
heavy 2: not shown
light: DIVMTQSPLSLPVTPGEPASISCQASESLVHSNRNTYLHWYLQKPGQSPQLLIYKVSNRFSGVPDRFSGSGSGTDFTLKISRVEAEDVGVYYCSQNTHVPPTFGQGTKVEIERTVAAPSVFIFPPSDEQLKSGTASVVCLLNNFYPREAKVQWKVDNALQSGNSQESVTEQDSKDSTYSLSSTLTLSKADYEKHKVYACEVTHQGLSSPVTKSFNRGEC
notes: also called He Ab T335_07I
As to B2, in assay [2], the He/Con_2b was 106 % of HeCon Ab GpH7-A5/GpH7-B3/GpL16-k0.

B3: GpH7-A5/GpH7-B3 variant T335_18N/GpL16-k0 (antibody, human IgG1, kappa)
heavy 1: not shown
heavy 2: not shown
light: DIVMTQSPLSLPVTPGEPASISCQASESLVHSNRNTYLHWYLQKPGQSPQLLIYKVSNRFSGVPDRFSGSGSGTDFTLKISRVEAEDVGVYYCSQNTHVPPTFGQGTKVEIERTVAAPSVFIFPPSDEQLKSGTASVVCLLNNFYPREAKVQWKVDNALQSGNSQESVTEQDSKDSTYSLSSTLTLSKADYEKHKVYACEVTHQGLSSPVTKSFNRGEC
notes: also called He Ab T335_18N
Consider B3, for which the He/Con_2b in assay [2] was 102 % of HeCon Ab GpH7-A5/GpH7-B3/GpL16-k0.

B4: GpH7-A5/GpH7-B3 variant T335_10E/GpL16-k0 (antibody, human IgG1, kappa)
heavy 1: not shown
heavy 2: not shown
light: DIVMTQSPLSLPVTPGEPASISCQASESLVHSNRNTYLHWYLQKPGQSPQLLIYKVSNRFSGVPDRFSGSGSGTDFTLKISRVEAEDVGVYYCSQNTHVPPTFGQGTKVEIERTVAAPSVFIFPPSDEQLKSGTASVVCLLNNFYPREAKVQWKVDNALQSGNSQESVTEQDSKDSTYSLSSTLTLSKADYEKHKVYACEVTHQGLSSPVTKSFNRGEC
notes: also called He Ab T335_10E
For B4, the He/Con_2b in assay [2] is 108 % of HeCon Ab GpH7-A5/GpH7-B3/GpL16-k0.

B5: GpH7-A5/GpH7-B3 variant S337_20W/GpL16-k0 (antibody, human IgG1, kappa)
heavy 1: not shown
heavy 2: not shown
light: DIVMTQSPLSLPVTPGEPASISCQASESLVHSNRNTYLHWYLQKPGQSPQLLIYKVSNRFSGVPDRFSGSGSGTDFTLKISRVEAEDVGVYYCSQNTHVPPTFGQGTKVEIERTVAAPSVFIFPPSDEQLKSGTASVVCLLNNFYPREAKVQWKVDNALQSGNSQESVTEQDSKDSTYSLSSTLTLSKADYEKHKVYACEVTHQGLSSPVTKSFNRGEC
notes: also called He Ab S337_20W
Consider B5, for which the He/Con_2b in assay [2] is 109 % of HeCon Ab GpH7-A5/GpH7-B3/GpL16-k0.

B6: GpH7-A5/GpH7-B3 variant T335_15Y/GpL16-k0 (antibody, human IgG1, kappa)
heavy 1: not shown
heavy 2: not shown
light: DIVMTQSPLSLPVTPGEPASISCQASESLVHSNRNTYLHWYLQKPGQSPQLLIYKVSNRFSGVPDRFSGSGSGTDFTLKISRVEAEDVGVYYCSQNTHVPPTFGQGTKVEIERTVAAPSVFIFPPSDEQLKSGTASVVCLLNNFYPREAKVQWKVDNALQSGNSQESVTEQDSKDSTYSLSSTLTLSKADYEKHKVYACEVTHQGLSSPVTKSFNRGEC
notes: also called He Ab T335_15Y
B6: in assay [2], the He/Con_2b is 108 % of HeCon Ab GpH7-A5/GpH7-B3/GpL16-k0.

B7: GpH7-A5/GpH7-B3 variant T335_13S/GpL16-k0 (antibody, human IgG1, kappa)
heavy 1: not shown
heavy 2: not shown
light: DIVMTQSPLSLPVTPGEPASISCQASESLVHSNRNTYLHWYLQKPGQSPQLLIYKVSNRFSGVPDRFSGSGSGTDFTLKISRVEAEDVGVYYCSQNTHVPPTFGQGTKVEIERTVAAPSVFIFPPSDEQLKSGTASVVCLLNNFYPREAKVQWKVDNALQSGNSQESVTEQDSKDSTYSLSSTLTLSKADYEKHKVYACEVTHQGLSSPVTKSFNRGEC
notes: also called He Ab T335_13S
On to B7, for which, in assay [2], the He/Con_2b was 102 % of HeCon Ab GpH7-A5/GpH7-B3/GpL16-k0.

B8: GpH7-B3 variant P331_13S/GpL16-k0 (antibody, human IgG1, kappa)
heavy: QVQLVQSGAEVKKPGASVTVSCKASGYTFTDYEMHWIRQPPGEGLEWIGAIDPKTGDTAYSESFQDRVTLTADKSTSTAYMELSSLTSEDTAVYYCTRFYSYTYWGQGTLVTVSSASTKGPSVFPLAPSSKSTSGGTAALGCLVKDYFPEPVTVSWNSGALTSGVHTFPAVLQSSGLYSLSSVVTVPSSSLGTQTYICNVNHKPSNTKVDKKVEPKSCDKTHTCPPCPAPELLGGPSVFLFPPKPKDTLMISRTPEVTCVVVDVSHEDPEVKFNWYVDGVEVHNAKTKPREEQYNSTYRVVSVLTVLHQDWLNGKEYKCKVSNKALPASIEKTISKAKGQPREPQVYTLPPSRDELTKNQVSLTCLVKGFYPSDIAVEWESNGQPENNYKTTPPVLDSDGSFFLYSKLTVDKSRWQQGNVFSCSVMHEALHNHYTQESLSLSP
light: DIVMTQSPLSLPVTPGEPASISCQASESLVHSNRNTYLHWYLQKPGQSPQLLIYKVSNRFSGVPDRFSGSGSGTDFTLKISRVEAEDVGVYYCSQNTHVPPTFGQGTKVEIERTVAAPSVFIFPPSDEQLKSGTASVVCLLNNFYPREAKVQWKVDNALQSGNSQESVTEQDSKDSTYSLSSTLTLSKADYEKHKVYACEVTHQGLSSPVTKSFNRGEC
notes: also called Ho Ab
Consider B8, for which the Ho/Con_2aR in assay [1] was 87.8 % of GpH7-B3/GpL16-k0 (=100).

B9: GpH7-B3 variant P331_10E/GpL16-k0 (antibody, human IgG1, kappa)
heavy: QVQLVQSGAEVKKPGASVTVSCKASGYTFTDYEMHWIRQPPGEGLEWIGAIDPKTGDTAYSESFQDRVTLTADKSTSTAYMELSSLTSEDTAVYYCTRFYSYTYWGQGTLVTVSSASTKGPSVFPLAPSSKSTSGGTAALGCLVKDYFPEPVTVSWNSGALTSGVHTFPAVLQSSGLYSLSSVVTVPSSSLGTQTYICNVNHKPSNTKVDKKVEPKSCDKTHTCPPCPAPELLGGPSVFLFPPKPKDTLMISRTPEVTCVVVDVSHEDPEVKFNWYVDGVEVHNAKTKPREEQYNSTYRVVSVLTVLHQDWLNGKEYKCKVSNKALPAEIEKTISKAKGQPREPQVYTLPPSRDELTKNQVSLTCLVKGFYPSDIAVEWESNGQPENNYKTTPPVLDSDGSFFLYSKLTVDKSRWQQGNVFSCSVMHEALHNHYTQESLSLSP
light: DIVMTQSPLSLPVTPGEPASISCQASESLVHSNRNTYLHWYLQKPGQSPQLLIYKVSNRFSGVPDRFSGSGSGTDFTLKISRVEAEDVGVYYCSQNTHVPPTFGQGTKVEIERTVAAPSVFIFPPSDEQLKSGTASVVCLLNNFYPREAKVQWKVDNALQSGNSQESVTEQDSKDSTYSLSSTLTLSKADYEKHKVYACEVTHQGLSSPVTKSFNRGEC
notes: also called Ho Ab
Take B9: in assay [1], the Ho/Con_2aR was 94.6 % of GpH7-B3/GpL16-k0 (=100).

The record behind these values is patent US20150344570A1 (published 2015).
